Experimental data from patent publication US20140079716A1 (Biogen, published 2014).
Numbering of substitutions follows the chain as printed. Where “and” joins values, the source holds several entries; their conditions need not be identical. Equal entries are not always repeated.

T1: soluble recombinant human lymphotoxin α1β2 (human, UniProt P01374 35-205, limits assumed)
T1 sequence 1: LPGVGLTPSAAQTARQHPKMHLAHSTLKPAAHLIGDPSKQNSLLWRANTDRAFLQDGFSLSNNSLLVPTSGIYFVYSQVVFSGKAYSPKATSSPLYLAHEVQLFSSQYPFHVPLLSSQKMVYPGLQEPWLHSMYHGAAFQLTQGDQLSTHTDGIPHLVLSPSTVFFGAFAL
T1 sequence 2: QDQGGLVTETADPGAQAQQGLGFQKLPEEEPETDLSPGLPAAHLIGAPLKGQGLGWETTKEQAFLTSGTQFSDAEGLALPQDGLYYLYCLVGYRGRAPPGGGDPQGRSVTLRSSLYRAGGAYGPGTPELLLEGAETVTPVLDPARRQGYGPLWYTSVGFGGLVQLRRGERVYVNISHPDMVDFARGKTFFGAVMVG

T2: human LT (human, UniProt P01374 35-205, limits assumed)
T2 construct: also called human LTα1β2
T2 sequence 1: T1 sequence 1
T2 sequence 2: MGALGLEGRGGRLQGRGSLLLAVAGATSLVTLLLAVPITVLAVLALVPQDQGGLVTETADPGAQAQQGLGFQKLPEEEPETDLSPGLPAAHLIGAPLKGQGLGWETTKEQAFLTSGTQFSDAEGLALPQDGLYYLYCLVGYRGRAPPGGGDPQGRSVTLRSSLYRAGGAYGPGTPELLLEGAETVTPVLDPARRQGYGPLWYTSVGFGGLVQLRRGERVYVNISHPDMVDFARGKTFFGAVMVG

T3: LTα3 (soluble homotrimer) (UniProt P01374 35-205)
T3 construct: Coated on ELISA plates at 1 or 5 ug/ml; also called LTa3
T3 sequence (looked up): T1 sequence 1

T4: LTα1β2 on the surface of PMA-treated II-23 cells (UniProt P01374 35-205, limits assumed)
T4 construct: whole, on cells; also called surface LT
T4 sequence 1: T1 sequence 1
T4 sequence 2: T2 sequence 2

T5: Soluble Flag-tagged LTα1β2 (UniProt P01374 35-205, limits assumed)
T5 construct: Biacore ligand captured on the anti-Flag antibody M2; the whole LTβ entry is named here; also called Ligand
T5 sequence 1: T1 sequence 1
T5 sequence 2: T1 sequence 2

B1: LT105 (P2E9.7) (antibody, IgG1, V domains shown)
VH: DVQLQESGPGLVKPSQSLSLTCSVTGYSITSGYYWNWIRQFPGNKLEGMGYISYDGSNNYNPSLKNRISITRDSSKNQFFLKLNSVTAEDSGTYYCARDAYSYGMDYWGQGTSVTVSS
VL: DIVLTQSPASLAVSLGQRATISCRASESVDNYGISFMHWYQQKPGQPPKLLIYRASNLESGIPARFSGSGSRTDFTLTINPVETDDVATFYCQQSNKDPYTFGGGTKLEIK
notes: The humanized versions were tested only for solubility; also called mAb LT105
B2: LT107 (P5C4.1) (antibody, V domains shown)
VH: QVQLKQSGPGLVQPSQNLSITCTVSGFSLTNYGIHWIRQPPGKGLEWLGVIWSGGSTDHNAAFISRLSISKDNSKSQVFFTMNSLEVDDTAIYYCARNRAYYRYEGGMDYWGQGTSVTVSS
VL: DIKMTQSPSSMYASLGERVTITCKASQDINTYLNWFQQKPGKSPMTLIYRADRLLDGVPSRFSGSGSGQDYSLTISSLEDEDMGIYYCQQYDDFPLTFGAGTKLELK
notes: Murine monoclonal antibody, kappa light chain; also called mAb LT107
B3: LT108 (P4F2.2) (antibody, V domains shown)
VH: B2 VH with N17S, N31D, A62V, I64T, S68N, T81K, V87P, I92M
VL: B2 VL
notes: also called mAb LT108
B4: A1D5 (antibody, V domains shown)
VH: EVQLQQSGPELVKPGASVKISCKASGYSFTGYFMNWMRQSHGKSLEWIGRINPYNGDSFYNQKFKDKATLTVDKSSTTAHMELLSLTSEDSAVYYCGRGYDAMDYWGQGTSVTVSS
VL: DIQMTQTTSSLSASLGDRVTISCRASQDISNFLTWYQQKPDGTVKLLIYYTSKLHSGVPSRFSGSGSGTDYSLTISNLEPGDIATYYCQQVSKFPWTFGGGAKLEIK
notes: Murine monoclonal antibody, kappa light chain; also called mAb A1D5
B5: A0D9 (antibody, V domains shown)
VH: QVQLKQSGPGLVQPSQSLSITCTVSGFSLSTYGVHWVRQFPGKGLEWLGVIWRGGNTNYNAAFMSRLTISKDNSKSQVFFKMNSLQAKDTAIYYCVRNQIYDGYYDYAMDYWGQGTSVTVSS
VL: DIKMTQSPSSMYASLGERVTITCKASQDINTYLNWLQQKPGKSPKTLIYRANRLVDGVPSRFSGRGSGQDYSLTISSLEYEDVGIYYCLHYDAFPWTFGGGTKLEIK
notes: Murine monoclonal antibody, kappa light chain; also called mAb A0D9; AOD9
B6: 9B4 (antibody, V domains shown)
VH: QVTLKESGPGILQPSQTLSLTCSFSGFSLSTSGMGVSWIRQPSGKGLEWLAHIYWDDDKRYNPSLRSRLTISKDTSRNQVFLKITSVDTADTATYYCARREGYYGSSFDFDVWGAGTTVTVSS
VL: QIVLSQSPAILSASPGEKVTMTCRASSSVSYMIWYQQKPGSSPKPWIYATSSLASGVPTRFSGSGSGTSYSLTISRVEAADAATYYCQQWSYNPLTFGAGTKLELK
notes: Murine monoclonal antibody, kappa light chain; also called LT 9B4; LT9B4
B7: LT102 (P1G8.2) (antibody, IgG1, V domains shown)
VH: EVKLVESGGGLVKPGGSLKLSCAVSGFTFSDYYMYWIRQTPEKRLEWVATIGDGTSYTHYPDSVQGRFTISRDYATNNLYLQMTSLRSEDTALYYCARDLGTGPFAYWGQGTLVTVSA
VL: DVLMTQTPRSLPVSLGDQASISCRSSQNIVHSNGNTYLEWYLQKPGQSPKLLIYKVSNRFSGVPDRFSGSGSGTDFTLKISRVEAEDLGVYYCFQGSHFPWTFGGGTKLEIK
notes: also called mAb LT102; LT012
B8: LT101 (P1G4.4) / LT103 (P1G9.1) (antibody, V domains shown)
VH: QVQLQQSGPELVKPGASVQISCKASGYVFSSSWMNWVKQRPGRGLEWIGRIYPGDGDTDYTGKFKGKATLTADKSSNTAYMQLSSLTSVDSAVYFCASGYFDFWGQGTPLTVSS
VL: DITMTQSPSSMYASLGERVTITCKASQDMNNYLRWFQQKPGKSPQTLIFRANRLVDGVPSRFSGSGSGQDYSLTISSLEFEDMGIYYCLQHDKFPPTFGGGTKLEIK
notes: Murine monoclonal antibody, kappa light chain; also called LT101/LT103
B9: Murine LTBR-mIgG1 (Fc fusion, UniProt P50284 31-223, looked up)
chain: QLVPPYRIENQTCWDQDKEYYEPMHDVCCSRCPPGEFVFAVCSRSQDTVCKTCPHNSYNEHWNHLSTCQLCRPCDIVLGFEEVAPCTSDRKAECRCQPGMSCVYLDNECVHCEEERLVLCQPGTEAEVTDEIMDTDVNCVPCKPGHFQNTSSPRARCQPHTRCEIQGLVEAAPGTSYSDTICKNPPEPGAMLL
notes: also called mLTBR-mIgG1; mLTβR-mIg; not shown: murine IgG1 part
B10: monomeric LTβR (receptor, UniProt P36941 31-227, looked up)
chain: QAVPPYASENQTCRDQEKEYYEPQHRICCSRCPPGTYVSAKCSRIRDTVCATCAENSYNEHWNYLTICQLCRPCDPVMGLEEIAPCTSKRKTQCRCQPGMFCAAWALECTHCELLSDCPPGTEAELKDEVGKGNNHCVPCKAGHFQNTSSPSARCQPHTRCENQGLVEAAPGTAQSDTTCKNPLEPLPPEMSGTMLM
notes: Injected at 20 µM in the Biacore assay; also called LTbR
B11: LTβR-Ig (Fc fusion, UniProt P36941 31-227, looked up)
chain: B10 chain
modifications: biotin label in the II-23 assay (sites not given)
notes: also called LTBR-Ig; LTbR-Ig; not shown: Ig (Fc) part

These binders were tested against T1, soluble recombinant human lymphotoxin … (assay: cell-based or functional assay).
With B1 the “IC50 nM, inhibition of IL-8 release” value was 1.06 nM and 0.52 nM and the “Maximum % Inhibition of IL-8 release” value was 100%. For B2, the “IC50 nM, inhibition of IL-8 release” value was 0.53 nM and the “Maximum % Inhibition of IL-8 release” value was 95%. B3 was tested, and the “IC50 nM, inhibition of IL-8 release” value was 1.3 nM. B4 was tested, and the “IC50 nM, inhibition of IL-8 release” value was 2.5 nM and the “Maximum % Inhibition of IL-8 release” value was 94%. In the case of B5, the “IC50 nM, inhibition of IL-8 release” value is reported as 1.67 nM and the “Maximum % Inhibition of IL-8 release” value is reported as 94%. With B6 the “IC50 nM, inhibition of IL-8 release” value was 0.6 nM and the “Maximum % Inhibition of IL-8 release” value was 95%. In the case of B7, the “IC50 nM, inhibition of IL-8 release” value is reported as 0.406 nM and 0.991 nM and the “Maximum % Inhibition of IL-8 release” value is reported as 92%. For B8, the “IC50 nM, inhibition of IL-8 release” value was 1.11 nM and the “Maximum % Inhibition of IL-8 release” value was 90%.

The binders below were run against T2, human LT (assay: reagent description; assay not stated).
In the case of B9, the “fold lower affinity than for murine LT” value is reported as ~2 fold.

Each binder was assayed against T3, LTα3 (soluble homotrimer) (assay: ELISA on plate-coated LTα3 (1 or 5 ug/ml)).
Method: For the LTa3 ELISA, microtiter plates were coated with LTα3 (1 or 5 ug/ml in PBS) then nonspecific binding sites were blocked with a 1% casein buffer. Samples (antibodies, receptor-Ig) were added and binding detected with HRP-conjugated anti-murine Ig antibodies. For assessment of ability of mAbs to block interaction between LTα3 and TNFR-hIg (p55), plates were coated with LTα3 and blocked as described above. Serial dilutions of antibodies were added to plate 30 minutes prior to TNFR-Ig addition. Binding of TNFR-hIg to plate-bound LTα3 was detected with an HPR conjugated anti-human Ig antibody.
B1: no binding. B2: no binding. B3: no binding. B4: no binding. B5: no binding. B6: no binding. B7: no binding.

Each binder was assayed against T4, LTα1β2 on the surface of PMA-treated … (assay: FACS, inhibition of biotin-LTβR-Ig binding to PMA-treated II-23 cells).
Method: (§1) II-23 cells were incubated with 50 ng/ml PMA for 4 hours at 37° C. 5% CO2. The cells were washed and 500,000 cells were added to each well of a 96-well plate. The antibody was diluted to the appropriate concentrations and added to the II-23 cells. After a 30 minute incubation period at 4° C., the biotin labeled LTβR-Ig is added to each well for a final concentration of 1 ug/ml. The cells are incubated at 4° C. for an additional 30 minutes, and then washed 3 times. Streptavidin-PE was diluted to 1/500 and added to each well and incubated for 1 hour at 4° C. The cells were washed once and read by FACS analysis. The mean fluorescence intensity is plotted versus antibody concentrations, and an IC50 is determined from a 4-parameter curve fit of the data.
In the case of B1, the “potency in an II-23 assay (% blockade)” value is reported as > 90%. In the case of B4, the “potency in an II-23 assay (% blockade)” value is reported as > 90%. With B5 the “potency in an II-23 assay (% blockade)” value was > 90%. In the case of B6, the “potency in an II-23 assay (% blockade)” value is reported as > 90%. For B7, the “potency in an II-23 assay (% blockade)” value was > 90%.

What follows are binders tested against T5, Soluble Flag-tagged LTα1β2 (assay: SPR (Biacore 3000), Flag-LTα1β2 captured on anti-Flag M2; LTβR binding site 1).
B10 gave a Kd of ~50 nM.

What follows are binders tested against T5, Soluble Flag-tagged LTα1β2 (assay: SPR (Biacore 3000), Flag-LTα1β2 captured on anti-Flag M2; LTβR binding site 2).
For B10, the Kd was ~1500 nM.

These binders were tested against T4, LTα1β2 on the surface of PMA-treated … (assay: FACS, inhibition of biotin-LTβR-Ig (1 ug/ml) binding to PMA-treated II-23 cells).
Method: as §1
In the case of B1, the “Maximum % Inhibition” value is reported as 97%. B2 was tested, and the “Maximum % Inhibition” value was 80%. With B4 the “Maximum % Inhibition” value was 92%. B5 was tested, and the “Maximum % Inhibition” value was 92%. With B6 the “Maximum % Inhibition” value was 99%. With B7 the “Maximum % Inhibition” value was 98%. B8 was tested, and the “Maximum % Inhibition” value was 77%.

The binders below were run against T4, LTα1β2 on the surface of PMA-treated … (assay: competition FACS (II-23 assay, as in FIG. 4): LT-expressing cells, varied antibody, labelled LTβR-Ig; MFI of bound LTβR-Ig).
Method: as §1
For B1, the “IC50 (read off the curve)” value was ~0.06 µg/mL. B2 was tested, and the “IC50 (read off the curve)” value was ~0.03 µg/mL. With B4 the “IC50 (read off the curve)” value was ~0.6 µg/mL. B5 was tested, and the “IC50 (read off the curve)” value was ~0.2 µg/mL. With B7 the “IC50 (read off the curve)” value was ~0.4 µg/mL. B8 was tested, and the “IC50 (read off the curve)” value was ~0.04 µg/mL.

These binders were tested against T4, LTα1β2 on the surface of PMA-treated … (assay: competition FACS (II-23 assay, as in FIG. 4): LT-expressing cells, varied competitor, labelled LTβR-Ig; MFI of bound LTβR-Ig).
Method: as §1
With B11 the “IC50 (read off the curve)” value was ~0.03 µg/mL.

These binders were tested against T4, LTα1β2 on the surface of PMA-treated … (assay: competition FACS (II-23 assay): PMA-treated II-23 cells, varied antibody, then biotin-LTβR-Ig at 1 ug/ml, streptavidin-PE; MFI of bound LTβR-Ig).
Method: as §1
For B1, the “IC50 (read off the curve)” value was ~1 nM. In the case of B6, the “IC50 (read off the curve)” value is reported as ~0.9 nM. B7 was tested, and the “IC50 (read off the curve)” value was ~3 nM.

What follows are binders tested against T4, LTα1β2 on the surface of PMA-treated … (assay: competition FACS (II-23 assay): PMA-treated II-23 cells, varied competitor, then biotin-LTβR-Ig at 1 ug/ml, streptavidin-PE; MFI of bound LTβR-Ig).
Method: as §1
For B11, the “IC50 (read off the curve)” value was ~0.8 nM.
